Columns and labels:
[1] = tested on: HeLa Kyoto; test: solubility in G1/S (NP-40 vs SDS abundance) (log2 ratio); higher = more soluble; conditions: cell cycle stage: G1/S
[2] = tested on: HeLa Kyoto; test: solubility change mitosis vs G1/S (difference of NP-40 vs SDS log2 ratios) (log2 ratio difference); higher = more soluble in mitosis
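Wherever solubility change mitosis vs G1/S (difference of NP-40 vs SDS log2 ratios) is given: synchronized HeLa Kyoto cells (double thymidine block for G1/S, nocodazole release for mitosis), protein amounts in NP-40 versus SDS lysates quantified by mass spectrometry, three biological replicates.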
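Wherever solubility in G1/S (NP-40 vs SDS abundance) is given: HeLa Kyoto cells arrested at G1/S by double thymidine block, proteins quantified by TMT10plex mass spectrometry in mild NP-40 versus SDS extracts, three biological replicates.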

For “MFHSPRRLCSALLQRDAPGLRRLPAPGLRRPLSPPAAVPRPASPRLLAAASAASGAARSCSRTVCSMGTGTSRLYSALAKTLNSSAASQHPEYLVSPDPEHLEPIDPKELLEECRAVLHTRPPRFQRDFVDLRTDCPSTHPPIRVMQWNILAQALGEGKDNFVQCPVEALKWEERKCLILEEILAYQPDILCLQEVDHYFDTFQPLLSRLGYQGTFFPKPWSPCLDVEHNNGPDGCALFFLQNRFKLVNSANIRLTAMTLKTNQVAIAQTLECKESGRQFCIAVTHLKARTGWERFRSAQGCDLLQNLQNITQGAKIPLIVCGDFNAEPTEEVYKHFASSSLNLNSAYKLLSADGQSEPPYTTWKIRTSGECRHTLDYIWYSKHALNVRSALDLLTEEQIGPNRLPSFNYPSDHLSLVCDFSFTEESDGLS [NOCT]”, the “solubility in G1/S (log2)” value [1] was 0.0632 and the “solubility change mitosis (log2)” value [2] was -0.0975.

With “MFLQYYLNEQGDRVYTLKKFDPMGQQTCSAHPARFSPDDKYSRHRITIKKRFKVLMTQQPRPVL [NOP10]” the “solubility in G1/S (log2)” value [1] was -1.06 and the “solubility change mitosis (log2)” value [2] was 0.778.

“MFPVFPCTLLAPPFPVLGLDSRGVGGLMNSFPPPQGHAQNPLQVGAELQSRFFASQGCAQSPFQAAPAPPPTPQAPAAEPLQVDLLPVLAAAQESAAAAAAAAAAAAAVAAAPPAPAAASTVDTAALKQPPAPPPPPPPVSAPAAEAAPPASAATIAAAAATAVVAPTSTVAVAPVASALEKKTKSKGPYICALCAKEFKNGYNLRRHEAIHTGAKAGRVPSGAMKMPTMVPLSLLSVPQLSGAGGGGGEAGAGGGAAAVAAGGVVTTTASGKRIRKNHACEMCGKAFRDVYHLNRHKLSHSDEKPYQCPVCQQRFKRKDRMSYHVRSHDGAVHKPYNCSHCGKSFSRPDHLNSHVRQVHSTERPFKCEKCEAAFATKDRLRAHTVRHEEKVPCHVCGKMLSSAYISDHMKVHSQGPHHVCELCNKGTGEVCPMAAAAAAAAAAAAAAVAAPPTAVGSLSGAEGVPVSSQPLPSQPW [MAZ]” was tested, and the “solubility in G1/S (log2)” value [1] was 0.0657 and the “solubility change mitosis (log2)” value [2] was 0.19.

In the case of “MFQASMRSPNMEPFKQQKVEDFYDIGEELGSGQFAIVKKCREKSTGLEYAAKFIKKRQSRASRRGVSREEIEREVSILRQVLHHNVITLHDVYENRTDVVLILELVSGGELFDFLAQKESLSEEEATSFIKQILDGVNYLHTKKIAHFDLKPENIMLLDKNIPIPHIKLIDFGLAHEIEDGVEFKNIFGTPEFVAPEIVNYEPLGLEADMWSIGVITYILLSGASPFLGDTKQETLANITAVSYDFDEEFFSQTSELAKDFIRKLLVKETRKRLTIQEALRHPWITPVDNQQAMVRRESVVNLENFRKQYVRRRWKLSFSIVSLCNHLTRSLMKKVHLRPDEDLRNCESDTEEDIARRKALHPRRRSSTS [DAPK2]”, the “solubility in G1/S (log2)” value [1] is reported as 0.203 and the “solubility change mitosis (log2)” value [2] is reported as -0.115.

“MGAAAAEADRTLFVGNLETKVTEELLFELFHQAGPVIKVKIPKDKDGKPKQFAFVNFKHEVSVPYAMNLLNGIKLYGRPIKIQFRSGSSHAPQDVSLSYPQHHVGNSSPTSTSPSRYERTMDNMTSSAQIIQRSFSSPENFQRQAVMNSALRQMSYGGKFGSSPLDQSGFSPSVQSHSHSFNQSSSSQWRQGTPSSQRKVRMNSYPYLADRHYSREQRYTDHGSDHHYRGKRDDFFYEDRNHDDWSHDYDNRRDSSRDGKWRSSRH [RBM7]” was tested, and the “solubility in G1/S (log2)” value [1] was 0.568 and the “solubility change mitosis (log2)” value [2] was 0.189.

For “MGLEDEQKMLTESGDPEEEEEEEEELVDPLTTVREQCEQLEKCVKARERLELCDERVSSRSHTEEDCTEELFDFLHARDHCVAHKLFNNLK [UQCRH]”, the “solubility in G1/S (log2)” value [1] was -0.528 and the “solubility change mitosis (log2)” value [2] was 0.641.

With “MGLYGQACPSVTSLRMTSELESSLTSMDWLPQLTMRAAIQKSDATQNAHGTGISKKNALLDPNTTLDQEEVQQHKDGKPPYSYASLITFAINSSPKKKMTLSEIYQWICDNFPYYREAGSGWKNSIRHNLSLNKCFLKVPRSKDDPGKGSYWAIDTNPKEDVLPTRPKKRARSVERASTPYSIDSDSLGMECIISGSASPTLAINTVTNKVTLYNTDQDGSDSPRSSLNNSLSDQSLASVNLNSVGSVHSYTPVTSHPESVSQSLTPQQQPQYNLPERDKQLLFSEYNFEDLSASFRSLYKSVFEQSLSQQGLMNIPSESSQQSHTSCTYQHSPSSTVSTHPHSNQSSLSNSHGSGLNTTGSNSVAQVSLSHPQMHTQPSPHPPHRPHGLPQHPQRSPHPAPHPQQHSQLQSPHPQHPSPHQHIQHHPNHQHQTLTHQAPPPPQQVSCNSGVSNDWYATLDMLKESCRIASSVNWSDVDLSQFQGLMESMRQADLKNWSLDQVQFADLCSSLNQFFTQTGLIHSQSNVQQNVCHGAMHPTKPSQHIGTGNLYIDSRQNLPPSVMPPPGYPHIPQALSTPGTTMAGHHRAMNQQHMMPSQAFQMRRSLPPDDIQDDFDWDSIV [FOXJ3]” the “solubility in G1/S (log2)” value [1] was 0.664 and the “solubility change mitosis (log2)” value [2] was 0.0825.

“MGMACLTMTEMEGTSTSSIYQNGDISGNANSMKQIDPVLQVYLYHSLGKSEADYLTFPSGEYVAEEICIAASKACGITPVYHNMFALMSETERIWYPPNHVFHIDESTRHNVLYRIRFYFPRWYCSGSNRAYRHGISRGAEAPLLDDFVMSYLFAQWRHDFVHGWIKVPVTHETQEECLGMAVLDMMRIAKENDQTPLAIYNSISYKTFLPKCIRAKIQDYHILTRKRIRYRFRRFIQQFSQCKATARNLKLKYLINLETLQSAFYTEKFEVKEPGSGPSGEEIFATIIITGNGGIQWSRGKHKESETLTEQDLQLYCDFPNIIDVSIKQANQEGSNESRVVTIHKQDGKNLEIELSSLREALSFVSLIDGYYRLTADAHHYLCKEVAPPAVLENIQSNCHGPISMDFAISKLKKAGNQTGLYVLRCSPKDFNKYFLTFAVERENVIEYKHCLITKNENEEYNLSGTKKNFSSLKDLLNCYQMETVRSDNIIFQFTKCCPPKPKDKSNLLVFRTNGVSDVPTSPTLQRPTHMNQMVFHKIRNEDLIFNESLGQGTFTKIFKGVRREVGDYGQLHETEVLLKVLDKAHRNYSESFFEAASMMSKLSHKHLVLNYGVCVCGDENILVQEFVKFGSLDTYLKKNKNCINILWKLEVAKQLAWAMHFLEENTLIHGNVCAKNILLIREEDRKTGNPPFIKLSDPGISITVLPKDILQERIPWVPPECIENPKNLNLATDKWSFGTTLWEICSGGDKPLSALDSQRKLQFYEDRHQLPAPKWAELANLINNCMDYEPDFRPSFRAIIRDLNSLFTPDYELLTENDMLPNMRIGALGFSGAFEDRDPTQFEERHLKFLQQLGKGNFGSVEMCRYDPLQDNTGEVVAVKKLQHSTEEHLRDFEREIEILKSLQHDNIVKYKGVCYSAGRRNLKLIMEYLPYGSLRDYLQKHKERIDHIKLLQYTSQICKGMEYLGTKRYIHRDLATRNILVENENRVKIGDFGLTKVLPQDKEYYKVKEPGESPIFWYAPESLTESKFSVASDVWSFGVVLYELFTYIEKSKSPPAEFMRMIGNDKQGQMIVFHLIELLKNNGRLPRPDGCPDEIYMIMTECWNNNVNQRPSFRDLALRVDQIRDNMAG [JAK2]” was tested, and the “solubility in G1/S (log2)” value [1] was -0.224 and the “solubility change mitosis (log2)” value [2] was 0.0233.

In the case of “MGNRGMEDLIPLVNRLQDAFSAIGQNADLDLPQIAVVGGQSAGKSSVLENFVGRDFLPRGSGIVTRRPLVLQLVNATTEYAEFLHCKGKKFTDFEEVRLEIEAETDRVTGTNKGISPVPINLRVYSPHVLNLTLVDLPGMTKVPVGDQPPDIEFQIRDMLMQFVTKENCLILAVSPANSDLANSDALKVAKEVDPQGQRTIGVITKLDLMDEGTDARDVLENKLLPLRRGYIGVVNRSQKDIDGKKDITAALAAERKFFLSHPSYRHLADRMGTPYLQKVLNQQLTNHIRDTLPGLRNKLQSQLLSIEKEVEEYKNFRPDDPARKTKALLQMVQQFAVDFEKRIEGSGDQIDTYELSGGARINRIFHERFPFELVKMEFDEKELRREISYAIKNIHGIRTGLFTPDMAFETIVKKQVKKIREPCLKCVDMVISELISTVRQCTKKLQQYPRLREEMERIVTTHIREREGRTKEQVMLLIDIELAYMNTNHEDFIGFANAQQRSNQMNKKKTSGNQDEILVIRKGWLTINNIGIMKGGSKEYWFVLTAENLSWYKDDEEKEKKYMLSVDNLKLRDVEKGFMSSKHIFALFNTEQRNVYKDYRQLELACETQEEVDSWKASFLRAGVYPERVGDKEKASETEENGSDSFMHSMDPQLERQVETIRNLVDSYMAIVNKTVRDLMPKTIMHLMINNTKEFIFSELLANLYSCGDQNTLMEESAEQAQRRDEMLRMYHALKEALSIIGDINTTTVSTPMPPPVDDSWLQVQSVPAGRRSPTSSPTPQRRAPAVPPARPGSRGPAPGPPPAGSALGGAPPVPSRPGASPDPFGPPPQVPSRPNRAPPGVPSRSGQASPSRPESPRPPFDL [DNM1]”, the “solubility in G1/S (log2)” value [1] is reported as 0.233 and the “solubility change mitosis (log2)” value [2] is reported as -0.0969.

“MGPKRRQLTFREKSRIIQEVEENPDLRKGEIARRFNIPPSTLSTILKNKRAILASERKYGVASTCRKTNKLSPYDKLEGLLIAWFQQIRAAGLPVKGIILKEKALRIAEELGMDDFTASNGWLDRFRRRHGVVSCSGVARARARNAAPRTPAAPASPAAVPSEGSGGSTTGWRAREEQPPSVAEGYASQDVFSATETSLWYDFLPDQAAGLCGGDGRPRQATQRLSVLLCANADGSEKLPPLVAGKSAKPRAGQAGLPCDYTANSKGGVTTQALAKYLKALDTRMAAESRRVLLLAGRLAAQSLDTSGLRHVQLAFFPPGTVHPLERGVVQQVKGHYRQAMLLKAMAALEGQDPSGLQLGLTEALHFVAAAWQAVEPSDIAACFREAGFGGGPNATITTSLKSEGEEEEEEEEEEEEEEGEGEEEEEEGEEEEEEGGEGEELGEEEEVEEEGDVDSDEEEEEDEESSSEGLEAEDWAQGVVEAGGSFGAYGAQEEAQCPTLHFLEGGEDSDSDSEEEDDEEEDDEDEDDDDDEEDGDEVPVPSFGEAMAYFAMVKRYLTSFPIDDRVQSHILHLEHDLVHVTRKNHARQAGVRGLGHQS [CENPB]” was tested, and the “solubility in G1/S (log2)” value [1] was -0.711 and the “solubility change mitosis (log2)” value [2] was -0.105.

“MGQCVTKCKNPSSTLGSKNGDREPSNKSHSRRGAGHREEQVPPCGKPGGDILVNGTKKAEAATEACQLPTSSGDAGRESKSNAEESSLQRLEELFRRYKDEREDAILEEGMERFCNDLCVDPTEFRVLLLAWKFQAATMCKFTRKEFFDGCKAISADSIDGICARFPSLLTEAKQEDKFKDLYRFTFQFGLDSEEGQRSLHREIAIALWKLVFTQNNPPVLDQWLNFLTENPSGIKGISRDTWNMFLNFTQVIGPDLSNYSEDEAWPSLFDTFVEWEMERRKREGEGRGALSSGPEGLCPEEQT [DCUN1D3]” was tested, and the “solubility in G1/S (log2)” value [1] was 0.0421 and the “solubility change mitosis (log2)” value [2] was -0.131.

In the case of “MGSAFERVVRRVVQELDHGGEFIPVTSLQSSTGFQPYCLVVRKPSSSWFWKPRYKCVNLSIKDILEPDAAEPDVQRGRSFHFYDAMDGQIQGSVELAAPGQAKIAGGAAVSDSSSTSMNVYSLSVDPNTWQTLLHERHLRQPEHKVLQQLRSRGDNVYVVTEVLQTQKEVEVTRTHKREGSGRFSLPGATCLQGEGQGHLSQKKTVTIPSGSTLAFRVAQLVIDSDLDVLLFPDKKQRTFQPPATGHKRSTSEGAWPQLPSGLSMMRCLHNFLTDGVPAEGAFTEDFQGLRAEVETISKELELLDRELCQLLLEGLEGVLRDQLALRALEEALEQGQSLGPVEPLDGPAGAVLECLVLSSGMLVPELAIPVVYLLGALTMLSETQHKLLAEALESQTLLGPLELVGSLLEQSAPWQERSTMSLPPGLLGNSWGEGAPAWVLLDECGLELGEDTPHVCWEPQAQGRMCALYASLALLSGLSQEPH [GSDMD]”, the “solubility in G1/S (log2)” value [1] is reported as 0.121 and the “solubility change mitosis (log2)” value [2] is reported as -0.218.
